Measured values reported in patent US20230192824A1 (UNITED STATES OF AMERICA AS REPRESENTED BY THE SECRETARY OF …, published 2023).

Assays:
[1] = molecular target: T1, CsbD, tip adhesin of CS17 fimbriae on wild type ETEC strain WS6788A (Escherichia coli (ETEC) strain WS6788A); experiment: cell-based or functional assay
T1 chain: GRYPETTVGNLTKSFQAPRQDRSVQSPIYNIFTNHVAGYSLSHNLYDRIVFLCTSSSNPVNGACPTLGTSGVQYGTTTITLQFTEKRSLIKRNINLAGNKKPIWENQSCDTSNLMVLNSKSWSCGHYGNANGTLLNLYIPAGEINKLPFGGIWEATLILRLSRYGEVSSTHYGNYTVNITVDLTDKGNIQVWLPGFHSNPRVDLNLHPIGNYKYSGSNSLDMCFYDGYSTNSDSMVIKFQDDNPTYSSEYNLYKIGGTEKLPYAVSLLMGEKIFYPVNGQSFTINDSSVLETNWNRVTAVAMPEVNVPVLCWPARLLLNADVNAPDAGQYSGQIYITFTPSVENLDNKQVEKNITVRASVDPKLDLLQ

[2] = molecular target: T2, CsbD L85I/H144A, tip adhesin of CS17 fimbriae on wild type ETEC strain LSN02-013966/A (Escherichia coli (ETEC) strain …); experiment: cell-based or functional assay
T2 chain: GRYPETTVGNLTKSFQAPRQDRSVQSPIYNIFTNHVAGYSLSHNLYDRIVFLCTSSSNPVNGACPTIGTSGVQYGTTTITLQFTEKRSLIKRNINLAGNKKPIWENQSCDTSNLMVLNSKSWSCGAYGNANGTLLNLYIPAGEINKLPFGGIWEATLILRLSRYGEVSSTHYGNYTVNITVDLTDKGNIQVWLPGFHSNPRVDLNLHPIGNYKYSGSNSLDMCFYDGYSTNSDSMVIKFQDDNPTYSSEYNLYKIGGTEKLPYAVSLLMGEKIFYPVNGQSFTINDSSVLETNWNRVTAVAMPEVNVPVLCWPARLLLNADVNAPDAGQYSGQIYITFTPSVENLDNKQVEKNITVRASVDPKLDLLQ

[3] = molecular target: T3, CfaE, tip adhesin of CFA/I fimbriae on wild type ETEC strain H10407 (Escherichia coli (ETEC) strain H10407, UniProt P25734 23-360); experiment: cell-based or functional assay
T3 sequence: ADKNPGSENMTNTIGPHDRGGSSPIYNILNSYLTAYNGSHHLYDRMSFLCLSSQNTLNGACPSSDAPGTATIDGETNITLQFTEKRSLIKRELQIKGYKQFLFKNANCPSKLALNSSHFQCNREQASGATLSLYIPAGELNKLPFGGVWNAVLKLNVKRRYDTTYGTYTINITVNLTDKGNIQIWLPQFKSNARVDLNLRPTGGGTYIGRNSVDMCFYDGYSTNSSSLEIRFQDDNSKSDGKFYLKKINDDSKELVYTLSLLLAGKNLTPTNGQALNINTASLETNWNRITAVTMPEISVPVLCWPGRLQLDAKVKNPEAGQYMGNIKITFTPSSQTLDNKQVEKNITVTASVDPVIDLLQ

[4] = molecular target: CsfD, tip adhesin of CS4 fimbriae on wild type ETEC strain BANG10-SP (Escherichia coli (ETEC) strain BANG10-SP); experiment: cell-based or functional assay
[5] = molecular target: T4, CotD, tip adhesin of CS2 fimbriae on wild type ETEC strain C91f (Escherichia coli (ETEC) strain C91f); experiment: cell-based or functional assay
T4 chain: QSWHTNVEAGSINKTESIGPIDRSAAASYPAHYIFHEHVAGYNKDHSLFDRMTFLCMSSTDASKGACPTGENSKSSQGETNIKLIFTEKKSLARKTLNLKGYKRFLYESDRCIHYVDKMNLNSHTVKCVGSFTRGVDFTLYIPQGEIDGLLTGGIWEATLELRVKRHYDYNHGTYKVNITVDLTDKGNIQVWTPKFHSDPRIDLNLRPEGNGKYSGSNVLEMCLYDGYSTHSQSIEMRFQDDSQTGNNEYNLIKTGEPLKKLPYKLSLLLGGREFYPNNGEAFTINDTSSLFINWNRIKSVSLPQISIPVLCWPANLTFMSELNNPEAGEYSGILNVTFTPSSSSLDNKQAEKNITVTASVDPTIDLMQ

[6] = molecular target: CooD, tip adhesin of CS1 fimbriae on wild type ETEC strain WS1974A (Escherichia coli (ETEC) strain WS1974A); experiment: cell-based or functional assay
[7] = molecular target: CsuD, tip adhesin of CS14 fimbriae on wild type ETEC strain WS3294A (Escherichia coli (ETEC) strain WS3294A); experiment: cell-based or functional assay
[8] = molecular target: T5, dsc19CotD6xhis (C91f), donor strand complemented recombinant CS2 fimbrial tip adhesin CotD (Escherichia coli (ETEC) strain C91f); experiment: ELISA on coated adhesin
T5 construct: also called dscCotD; CS2 adhesin
T5 chain: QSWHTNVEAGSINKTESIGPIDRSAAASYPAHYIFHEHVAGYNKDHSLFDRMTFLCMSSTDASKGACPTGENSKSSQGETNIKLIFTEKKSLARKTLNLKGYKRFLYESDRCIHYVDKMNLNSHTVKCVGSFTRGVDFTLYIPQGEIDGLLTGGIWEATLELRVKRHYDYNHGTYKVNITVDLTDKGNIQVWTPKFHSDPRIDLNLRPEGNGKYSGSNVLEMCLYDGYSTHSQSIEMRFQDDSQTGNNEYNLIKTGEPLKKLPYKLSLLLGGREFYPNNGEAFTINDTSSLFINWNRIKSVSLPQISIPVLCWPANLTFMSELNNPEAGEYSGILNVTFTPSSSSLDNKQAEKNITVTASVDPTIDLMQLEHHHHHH

[9] = molecular target: T6, dsc19CsbD6xhis (WS6788A), donor strand complemented recombinant CS17 fimbrial tip adhesin CsbD (Escherichia coli (ETEC) strain WS6788A); experiment: ELISA on coated adhesin
T6 construct: also called dscCsbD; primary CsbD
T6 chain: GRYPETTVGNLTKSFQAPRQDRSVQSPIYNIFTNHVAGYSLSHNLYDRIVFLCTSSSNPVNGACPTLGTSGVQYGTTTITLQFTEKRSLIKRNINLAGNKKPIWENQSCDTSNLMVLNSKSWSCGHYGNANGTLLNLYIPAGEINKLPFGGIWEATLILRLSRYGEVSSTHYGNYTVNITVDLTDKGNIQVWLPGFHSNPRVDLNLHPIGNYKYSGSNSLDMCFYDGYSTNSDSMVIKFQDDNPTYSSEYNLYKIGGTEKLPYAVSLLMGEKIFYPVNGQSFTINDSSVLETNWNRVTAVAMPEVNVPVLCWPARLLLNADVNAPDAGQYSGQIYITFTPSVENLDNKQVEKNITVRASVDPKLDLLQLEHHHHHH

[10] = molecular target: T7, CfaE PD, pilin domain (residues 203-383) of CfaE (Escherichia coli (ETEC) strain H10407); experiment: ELISA on coated CfaE domains (FIG. 10)
T7 construct: Tag not written for this construct; also called CfaE pilin domain
T7 chain: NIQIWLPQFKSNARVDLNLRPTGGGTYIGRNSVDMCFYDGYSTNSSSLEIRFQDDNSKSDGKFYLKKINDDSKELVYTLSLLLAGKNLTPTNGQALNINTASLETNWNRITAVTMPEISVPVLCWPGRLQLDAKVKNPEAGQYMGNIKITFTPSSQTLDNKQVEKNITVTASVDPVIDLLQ

B1: anti-CfaE mouse mAb P1F9 (antibody, V domains shown)
VH: QVQLQQPGAELVKPGASVKLSCKASGYTFTSYWMHWVRQRPGQGLDWIGEIDPSDSYINYNQKFKGKATLTVDKSSSTAYMQLSSLTSEDSAVYYCGRKSLGVSVLAYWGQGTPVTVSA
VL: DIVMTQSHKFMSTSVGDRVSISCTASQDVNAAVAWYQQKPGQSPKLLIYWASTRHTGVPDRFTGSGSGTDYTLTISSVQAEDLALYYCQQHYSTPLTFGAGTKLELK
[1]
  MIC in HAI: > 250 µg/mL
[2]
  MIC in HAI: > 250 µg/mL
[3]
  MIC in HAI: 1.5 µg/mL
[4]
  MIC in HAI: > 250 µg/mL
[5]
  MIC in HAI: > 250 µg/mL
[6]
  MIC in HAI: > 250 µg/mL
[7]
  MIC in HAI: > 250 µg/mL
[8]
  binding result: no binding (tested: mAb 2 ug/ml)
[9]
  binding result: no binding (tested: mAb 2 ug/ml)
[10]
  binding result: binds
